In patent US9422349:

Target: GLP-1 receptor on RIN-m5F rat insulinoma cells (rat) (UniProt P32301)
Assay: cell-based or functional assay

Sequence of UniProt P32301 (P32301 22-463): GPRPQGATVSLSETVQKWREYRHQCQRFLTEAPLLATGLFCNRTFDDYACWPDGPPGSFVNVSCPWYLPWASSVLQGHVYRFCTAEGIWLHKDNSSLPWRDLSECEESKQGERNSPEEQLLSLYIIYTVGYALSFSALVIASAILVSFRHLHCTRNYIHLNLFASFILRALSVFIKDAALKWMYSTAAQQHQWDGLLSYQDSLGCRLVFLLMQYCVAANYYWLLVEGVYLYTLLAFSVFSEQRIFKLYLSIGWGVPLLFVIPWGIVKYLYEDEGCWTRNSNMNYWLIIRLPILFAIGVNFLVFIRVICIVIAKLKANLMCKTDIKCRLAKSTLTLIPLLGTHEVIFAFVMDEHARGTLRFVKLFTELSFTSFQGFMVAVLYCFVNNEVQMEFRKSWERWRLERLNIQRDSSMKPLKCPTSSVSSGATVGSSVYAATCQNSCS

With “desamino-histidyl-exendin-4 (from UniProt P26349 48-86) (peptide)” the cAMP production in RIN-m5F cells, EC50 was 0.95 nM and the cAMP production in RIN-m5F cells, ratio vs Exendin4 (ratio vs Exendin4) was 127.
In the case of “imidazoacetyl-exendin-4 (from UniProt P26349 48-86) (peptide)”, the cAMP production in RIN-m5F cells, EC50 was 1.2 nM and the cAMP production in RIN-m5F cells, ratio vs Exendin4 (ratio vs Exendin4) was 100.
